# Test results published in patent publication US20200299395A1 (MOGAM INSTITUTE FOR BIOMEDICAL RESEARCH, published 2020).
# T1: recombinant human BCMA (Cat. No. 193-BC, R&D Systems) (human, UniProt Q02223 1-54)
# T1 sequence (looked up): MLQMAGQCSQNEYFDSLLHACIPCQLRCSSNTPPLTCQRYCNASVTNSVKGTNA
# T2: BCMA expressed on multiple myeloma cell lines H929 and MM1S (UniProt Q02223 1-184, limits assumed)
# T2 construct: whole, on cells; Endogenous BCMA on tumour cell lines; also called BMCA; cell surface BCMA
# T2 sequence (looked up): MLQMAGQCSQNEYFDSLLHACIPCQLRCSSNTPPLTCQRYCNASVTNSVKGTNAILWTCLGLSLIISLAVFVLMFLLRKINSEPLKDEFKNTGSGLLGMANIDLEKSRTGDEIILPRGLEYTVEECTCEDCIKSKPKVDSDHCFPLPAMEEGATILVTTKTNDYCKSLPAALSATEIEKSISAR
# How the values were obtained:
# [1] = biological target: BCMA expressed on multiple myeloma cell lines H929 and MM1S (UniProt Q02223); test: flow cytometry, H929 cells, negative control without VH-Fc protein [B), H929 table]
# [2] = biological target: BCMA expressed on multiple myeloma cell lines H929 and MM1S (UniProt Q02223); test: flow cytometry, MM1S cells, negative control without VH-Fc protein [B), MM1S table]
# [3] = biological target: BCMA expressed on multiple myeloma cell lines H929 and MM1S (UniProt Q02223); test: flow cytometry, H929 cells, negative control without VH domain [B), H929 table]
# [4] = biological target: BCMA expressed on multiple myeloma cell lines H929 and MM1S (UniProt Q02223); test: flow cytometry, MM1S cells, negative control without VH domain [B), MM1S table]
# [5] = biological target: T1, recombinant human BCMA (Cat. No. …); test: BLI (Octet), BCMA fixed on Anti-Fc Biosensor, antibody 0.078 to 5 nM
# Experimental: Among the selected 20 clones, Clones MN1, MN5, MN7, and MN8 which were expected to have excellent binding capacity to BCMA-expressing tumor cell lines were purified. Quantitative binding capacity (affinity) of Clones MN1, MN5, MN7, and MN8 to recombinant human BCMA was measured using the OCTET system (Pall Corporation). BCMA (Cat. No. 193-BC, R&D Systems) purified from HEK293 cells was fixed to Biosensor (Pall Corporation). Then, the MN1, MN5, MN7, or MN8 antibody diluted sequentially in Kinetic bfr (Pall Corporation) was allowed to associate in a concentration range of 0.078 nM to 5 nM for 120 seconds, and was allowed to dissociate by performing flowing at a flow rate of 30 μl/min for 1,800 seconds. Dissociation of the BCMA-bound antibody was induced by flowing 10 mM glycine-HCl pH 1.5 at a flow rate of 30 μl/min for 30 seconds (Table 3). The binding affinity was obtained as the kinetic parameters (Kon and Koff) and the equilibrium dissociation constant (KD) using the Octet system data analysis software (Table 4).
# [6] = biological target: T2, BCMA expressed on multiple myeloma cell …; test: flow cytometry, H929 cells, purified VH domain (text: 1 uM); control iso_anti-His-PE Mean 13.5 [B), H929 table]
# Experimental: (§1) Multiple myeloma cells in culture were placed in a 50 ml tube and centrifuged at 1,000 rpm for 5 minutes at room temperature. Then, the culture solution was discarded and washing with PBS was performed once. The resultant was suspended in FACS buffer and then transferred to a round bottom tube. Centrifugation was performed at 2,000 rpm for 3 minutes at room temperature. The supernatant was discarded and loosening was performed with FACS buffer so as to obtain 1×10⁶ cells/100 μl. Then, 1 uM of the purified candidate antibody was added thereto at 4° C.
# (§2) As a control, FACS buffer containing no candidate antibody was added. After 30 minutes, washing with FACS buffer was performed twice. […] The cells were collected by centrifugation at 2,000 rpm for 3 minutes, and then 200 μl of fixation buffer was added thereto. The cells were resuspended and measured by FACS Calibur™. The results are illustrated in FIGS. 4 and 5.
# [7] = biological target: T2, BCMA expressed on multiple myeloma cell …; test: flow cytometry, MM1S cells, purified VH domain (text: 1 uM); control iso_anti-His-PE Mean 4.19 [B), MM1S table]
# Experimental: as §1, §2
# [8] = biological target: T2, BCMA expressed on multiple myeloma cell …; test: flow cytometry, H929 cells, purified VH domain (text: 1 uM); control iso_anti-His-PE Median 10.8 [B), H929 table]
# Experimental: as §1, §2
# [9] = biological target: T2, BCMA expressed on multiple myeloma cell …; test: flow cytometry, MM1S cells, purified VH domain (text: 1 uM); control iso_anti-His-PE Median 3.74 [B), MM1S table]
# Experimental: as §1, §2
# [10] = biological target: T2, BCMA expressed on multiple myeloma cell …; test: flow cytometry, H929 cells, purified VH-Fc protein, 100nM per the sample name; control anti-hFc-PE Mean 5.41 [B), H929 table]
# [11] = biological target: T2, BCMA expressed on multiple myeloma cell …; test: flow cytometry, MM1S cells, purified VH-Fc protein, 100nM per the sample name; control anti-hFc-PE Mean 2.81 [B), MM1S table]
# [12] = biological target: T2, BCMA expressed on multiple myeloma cell …; test: flow cytometry, H929 cells, purified VH-Fc protein, 100nM per the sample name; control anti-hFc-PE Median 4.82 [B), H929 table]
# [13] = biological target: T2, BCMA expressed on multiple myeloma cell …; test: flow cytometry, MM1S cells, purified VH-Fc protein, 100nM per the sample name; control anti-hFc-PE Median 2.50 [B), MM1S table]
Molecule,Kd [5] [nM],Mean FL2-H [6],Mean FL2-H [7],Median FL2-H [8],Median FL2-H [9],Mean FL2-H [10],Mean FL2-H [11],Median FL2-H [12],Median FL2-H [13],also measured
anti-hFc-PE (antibody),,,,,,,,,,Mean FL2-H [1]: 5.41; Median FL2-H [1]: 4.82; Mean FL2-H [2]: 2.81; Median FL2-H [2]: 2.5
iso_anti-His-PE (antibody),,,,,,,,,,Mean FL2-H [3]: 13.5; Median FL2-H [3]: 10.8; Mean FL2-H [4]: 4.19; Median FL2-H [4]: 3.74
"Clone MN5 (VH domain) (VHH, Single-domain antibody: a VH domain from a synthetic phage library, not camelid; Expressed in E. coli) VHH: EVQLVESGGGLVQPGGSLRLSCAASGFTFSSYAMGWVRQAPGKGPEVVSLISGSGGSTWYDDSVKGRFTISRDNSKNTLYLQMNSLRAEDTAVYYCASREDNMTTWGQGTLVTVSS",2.22,25.6,13.9,22.9,9.81,,,,,
"MN5 VH-Fc protein (Fc fusion, VH domain fused to a human IgG1 Fc domain; not shown: human IgG1 Fc domain) EVQLVESGGGLVQPGGSLRLSCAASGFTFSSYAMGWVRQAPGKGPEVVSLISGSGGSTWYDDSVKGRFTISRDNSKNTLYLQMNSLRAEDTAVYYCASREDNMTTWGQGTLVTVSS",,,,,,10.6,3.02,7.78,2.64,
"Clone MN7 (VH domain) (VHH, Single-domain antibody: a VH domain from a synthetic phage library, not camelid; Expressed in E. coli) VHH: EVQLVESGGGLVQPGGSLRLSCAASGFTFSSYAMGWVRQAPGKGPEVVSLISGSGGSTWYDDSVKGRFTISRDNSKNTLYLQMNSLRAEDTAVYYCASPEDMYQTWGQGTLVTVSS",2.23,14.8,5.38,11.8,4.49,,,,,
"MN7 VH-Fc protein (Fc fusion, VH domain fused to a human IgG1 Fc domain; not shown: human IgG1 Fc domain) EVQLVESGGGLVQPGGSLRLSCAASGFTFSSYAMGWVRQAPGKGPEVVSLISGSGGSTWYDDSVKGRFTISRDNSKNTLYLQMNSLRAEDTAVYYCASPEDMYQTWGQGTLVTVSS",,,,,,10.1,2.89,7.92,2.55,
"Clone MN8 (VH domain) (VHH, Single-domain antibody: a VH domain from a synthetic phage library, not camelid; Expressed in E. coli) VHH: EVQLVESGGGLVQPGGSLRLSCAASGFTFSSYAMGWVRQAPGKGPEVVSLISGSGGSTWYDDSVKGRFTISRDNSKNTLYLQMNSLRAEDTAVYYCASPEDAPSYSRWGQGTLVTVSS",1.17,15.1,4.93,12.9,4.43,,,,,
"MN8 VH-Fc protein (Fc fusion, VH domain fused to a human IgG1 Fc domain; not shown: human IgG1 Fc domain) EVQLVESGGGLVQPGGSLRLSCAASGFTFSSYAMGWVRQAPGKGPEVVSLISGSGGSTWYDDSVKGRFTISRDNSKNTLYLQMNSLRAEDTAVYYCASPEDAPSYSRWGQGTLVTVSS",,,,,,14,3.13,10.3,2.77,
"Clone MN1 (VH domain) (VHH, Single-domain antibody: a VH domain from a synthetic phage library, not camelid; Expressed in E. coli) VHH: EVQLVESGGGLVQPGGSLRLSCAASGFTFTAYDMGWVRQAPGKGPEWVSLISSDSGDTWYDDSVKGRFTISRDNSKNTLYLQMNSLRAEDTAVYYCARLGAYSTTYDYWGQGTLVTVSS",0.7,62.9,24,50.4,14.3,,,,,
"MN1 VH-Fc protein (Fc fusion, VH domain fused to a human IgG1 Fc domain; not shown: human IgG1 Fc domain) EVQLVESGGGLVQPGGSLRLSCAASGFTFTAYDMGWVRQAPGKGPEWVSLISSDSGDTWYDDSVKGRFTISRDNSKNTLYLQMNSLRAEDTAVYYCARLGAYSTTYDYWGQGTLVTVSS",,,,,,134,49.9,101,42.1,
